Columns and labels:
[1] = target: IgG in human serum (serum pool n=100; pre-dose patient serum)
[2] = target: polyclonal IgG (substrate spiked into post-dose sera)

Row | Protein | cleavage of IgG in pre-dose patient serum, SDS-PAGE and SAB-HLA [1] | cleavage of IgG in serum, SDS-PAGE [1] | degradation of substrate spiked into sera collected after imlifidase dosing [2]
1 | N240 (IdeS/IdeZ hybrid IgG cysteine protease) (protein) DDYQRNATEAYAKEVPHQITSVWTKGVTPPEQFTQGEDVIHAPYLAHQGWYDITKAFNGKDDLLCGAATAGNMLHWWFDQNKTEIEAYLSKHPEKQKIIFRNQELFDLKAAIDTKDSQTNSQLFNYFRDKAFPNLSARQLGVMPDLVLDMFINGYYLNVFKTQSTDVNRPYQDKDKRGGIFDAVFTRGNQTTLLTARHDLKNKGLNDISTIIKQELTEGRALALSHTYANVSISHVINLWGADFNAEGNLEAIYVTDSDANASIGMKKYFVGINAHGHVAISAKKIEGENIGAQVLGLFTLSSGKDIWQKLS | N240 showed similar cleavage properties to imlifidase | – | –
2 | imlifidase (IdeS, Immunoglobulin G-degrading enzyme of S. pyogenes) (protein) DSFSANQEIRYSEVTPYHVTSVWTKGVTPPANFTQGEDVFHAPYVANQGWYDITKTFNGKDDLLCGAATAGNMLHWWFDQNKDQIKRYLEEHPEKQKINFNGEQMFDVKEAIDTKNHQLDSKLFEYFKEKAFPYLSTKHLGVFPDHVIDMFINGYRLSLTNHGPTPVKEGSKDPRGGIFDAVFTRGDQSKLLTSRHDFKEKNLKEISDLIKKELTEGKALGLSHTYANVRINHVINLWGADFDSNGNLKAIYVTDSDSNASIGMKKYFVGVNSAGKVAISAKEIKEDNIGAQVLGLFTLSTGQDSWNQTN | – | a concentration of around 2 µg/mL imlifidase was needed to start the cleavage in serum and concentrations below this did not result in any cleavage despite prolonged incubation | When polyclonal IgG was used as substrate, no degradation was seen in samples collected from 48 hours after dosing and forward

From patent US20260102475A1
